These results are taken from US20240368668A1, “SUBSTRATES AND BIOMARKERS OF ADAMTS7” (The Broad Institute, Inc., priority 2021, published 2024).

Square brackets hold non-standard residues; d marks the D form. Ends that are not written are not given here.

The first test deals with T1, mouse ADAMTS7 (Mus musculus, UniProt Q68SA9, E373Q).
T1 construct: Full-length mouse Adamts7 1-1857 (Uniprot Q68SA9, WT or E373Q catalytic mutant); expressed in transfected cells; host or cells: Human Coronary Artery Smooth Muscle Cells (HCA-SMC, Lonza), adenovirus 50 MOI
T1 sequence (Q68SA9 221-1657 E373Q): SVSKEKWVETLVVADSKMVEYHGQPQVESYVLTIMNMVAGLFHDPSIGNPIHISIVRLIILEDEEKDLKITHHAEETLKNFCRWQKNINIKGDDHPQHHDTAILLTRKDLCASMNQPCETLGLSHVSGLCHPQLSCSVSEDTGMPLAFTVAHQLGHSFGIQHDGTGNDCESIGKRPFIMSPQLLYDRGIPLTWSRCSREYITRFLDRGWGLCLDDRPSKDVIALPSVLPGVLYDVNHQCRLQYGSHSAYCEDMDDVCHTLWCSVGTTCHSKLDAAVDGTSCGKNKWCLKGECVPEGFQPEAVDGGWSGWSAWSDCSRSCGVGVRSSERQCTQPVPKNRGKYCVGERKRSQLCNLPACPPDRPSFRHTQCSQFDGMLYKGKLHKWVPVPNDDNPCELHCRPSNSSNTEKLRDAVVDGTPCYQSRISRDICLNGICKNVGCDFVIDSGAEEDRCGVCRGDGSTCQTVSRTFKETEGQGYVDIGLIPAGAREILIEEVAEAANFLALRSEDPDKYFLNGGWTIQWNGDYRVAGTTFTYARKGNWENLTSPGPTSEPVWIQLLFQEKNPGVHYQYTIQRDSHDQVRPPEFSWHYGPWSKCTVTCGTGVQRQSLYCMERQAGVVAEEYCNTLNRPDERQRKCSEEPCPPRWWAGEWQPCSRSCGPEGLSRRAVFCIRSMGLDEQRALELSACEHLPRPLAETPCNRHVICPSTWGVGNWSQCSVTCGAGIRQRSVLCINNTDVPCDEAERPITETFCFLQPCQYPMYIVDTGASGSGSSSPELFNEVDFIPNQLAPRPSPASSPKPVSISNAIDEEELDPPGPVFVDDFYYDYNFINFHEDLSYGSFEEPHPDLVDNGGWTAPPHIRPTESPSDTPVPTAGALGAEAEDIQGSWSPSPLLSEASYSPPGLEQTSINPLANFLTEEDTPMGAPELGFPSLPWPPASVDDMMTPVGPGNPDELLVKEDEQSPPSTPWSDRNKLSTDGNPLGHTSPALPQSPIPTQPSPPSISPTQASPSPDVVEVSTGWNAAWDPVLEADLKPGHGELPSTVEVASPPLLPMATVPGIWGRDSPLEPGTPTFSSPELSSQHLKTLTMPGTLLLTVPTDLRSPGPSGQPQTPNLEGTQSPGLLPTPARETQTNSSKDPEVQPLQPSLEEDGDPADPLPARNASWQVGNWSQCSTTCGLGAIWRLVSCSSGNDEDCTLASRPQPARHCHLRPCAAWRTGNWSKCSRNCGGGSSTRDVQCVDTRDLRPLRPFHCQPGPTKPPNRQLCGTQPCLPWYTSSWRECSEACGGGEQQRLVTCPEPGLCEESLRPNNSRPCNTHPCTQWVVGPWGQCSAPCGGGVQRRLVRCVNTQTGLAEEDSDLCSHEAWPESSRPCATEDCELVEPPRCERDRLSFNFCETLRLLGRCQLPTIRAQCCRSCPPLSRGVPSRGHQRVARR
Briefly: TMT10 TAILS N-terminomics, SMC2 experiment (process replicates, trypsin/AspN digest). The class given is cell-based. Particulars: SMC2_TAILS HC; log fold change of N-terminal peptide, Ad-mADAMTS7 EQ over Luc. An excerpt:
ADAMTS7 Expression, Cell Culture and Preparation of the Secreted Proteins—Full-length mouse Adamts7 1-1857 (Uniprot Q68SA9, WT or E373Q catalytic mutant) with a carboxyl terminal 3xFLAG tag was used to generate custom adenoviruses as previously described. Adeno-CMV-Luciferase (Ad-Luc) from Vector Biolabs was used as a negative control. Human Coronary Artery Smooth Muscle Cells (HCA-SMC) were obtained from Lonza and expanded in Lonza SmGM-2 media in 15 cm tissue culture plates. Twenty-four hours before media collection, near confluent plates were transduced with 50 MOI adenovirus and switched to Lonza Basal SM media with volumes of 20 ml per 15 cm plate. Expression of the Flag tagged ADAMTS7 was confirmed from the media using western blot and detected using the anti-Flag M2-HRP antibody (Sigma, A8592). Collected media was processed by adding protease inhibitors (1 mM EDTA and 1 mM PMSF) and clarified by 500 g×5 min spin at 4 C to pellet cell debris. Cell media supernatants were then passed through a 0.22 um filter and kept chilled. Processed media was then concentrated 50-100× using 3 kDa Centricon Plus-70 filter unit, spun at 3,500 g×60 min at 4 C. Approximately 10% of the processed, concentrated media was set aside for total secretome proteolytic analysis. The remaining 90% of the processed, concentrated media was buffer exchanged into 50 mM HEPES pH 8.0, 150 mM NaCl (2×50 ml) using the 3 kDa Centricon Plus-70 filter unit and concentrated to >2 mg/ml to serve as input for the TAILS experiment. Secretome and TAILS input samples were stored at −80° C.
For the first experiment, referred to as SMC1, 120 ml of media from 6×15 cm dishes was pooled from each condition (Luc, WT, EQ) and processed to produce three separate inputs for the TAILS experiment. Luc, WT and EQ inputs from the SMC1 experiment were each divided into triplicate 400 ug samples to generate technical replicate TAILS data. For the second experiment, referred to as SMC2, media was processed separately in triplicate for each condition (Luc1, Luc2, Luc3, WT1, WT2, WT3, EQ1, EQ2, EQ3) using 60 ml of media from 3×15 cm dishes for each process replicate. Inputs from the SMC2 experiment used process replicates of 300 ug each to generate TAILS data. The third experiment used input from cultured Human umbilical vein endothelial cells (HUVEC) from Lifeline Cell Technology grown in VascuLife Media and transduced in Lifeline Basal EC (+bFGF2 10 ng/ml). The HUVEC experiment used the same strategy as the SMC2 experiment, with 40 ml of media from 2×15 cm dishes for each process replicate and used 200 ug each to generate TAILS data. Inputs for process replicate experiments were restricted to the lowest concentration from the 9 parallel samples for SMC2 or HUVEC.
TMT10 isotopic labeling and negative selection of non-labeled peptides-Sample preparation was performed based on the TAILS protocol from the Overall lab with some modifications. From a single experiment, nine parallel protein samples in 50 mM HEPES pH 8.0, 150 mM NaCl were separately denatured with guanidinium chloride (Sigma, G4505) to reach a final concentration of 2.5M guanidinium chloride and 250 mM HEPES and incubated at 65° C. for 15 min. Reduction was achieved through addition of tris(2-carboxylethyl) phosphine (TCEP) at a final concentration of […] and incubated at 65° C. for 45 min. Alkylation reaction was performed with addition of iodoacetamide (IAA, Sigma, A3221) to a final concentration of 10 mM IAA for 15 min at room temperature in the dark. Following denaturation, reduction and alkylation steps, ten percent of each of the nine parallel protein samples was removed and combined to serve as a pooled reference. Isobaric tags were added to free amine groups using the TMT10plex Isobaric Mass Tagging Kit (ThermoFisher, 90113) with TMT channels randomly assigned to the nine samples and TMT 131 assigned to the pooled reference. […]
The substance “LOXL1_219 (VASAGVIYPYQPR; listed as Homo sapiens)” had a logFC.mEQ.over.Luc of 0.09.

In turn, “LOXL2_37 (FQQPAPEYHQPQAPANVAKIQLR; listed as Homo sapiens)” displayed a logFC.mEQ.over.Luc of −0.03.

In turn, “LOXL2_38 ([code q]QPAPEYHQPQAPANVAKIQLR; not fully specified; listed as Homo sapiens)” registered a logFC.mEQ.over.Luc of 0.06.

“LTBP1_393 (LTATNFR; listed as Homo sapiens)” yielded a logFC.mEQ.over.Luc of 0.29.

Substance “LTBP1_540 (HQQVIPHVYPVAAKTQLGR; listed as Homo sapiens)” had a logFC.mEQ.over.Luc of 0.05.

Staying with this test, now noted: SMC2_TAILS HC; log fold change, mEQ over Luc.
In the case of “AEBP1_37 (FLEGFLSELEPEPR; listed as Homo sapiens)”, the logFC.mEQ.over.Luc is on record as −0.27.

“CCDC80_66 (LEEPNLQPLQR; listed as Homo sapiens)” gave a logFC.mEQ.over.Luc of −0.13.

“EFEMP1_124 (AVAGPEMQTGR; listed as Homo sapiens)” yielded a logFC.mEQ.over.Luc of −0.46.

In turn, “EFEMP1_125 (VAGPEMQTGR; listed as Homo sapiens)” registered a logFC.mEQ.over.Luc of −0.99.

“FBLN2_259 (ALGPPAPVQAKAR; listed as Homo sapiens)” had a logFC.mEQ.over.Luc of −0.27.

The substance “FBLN2_260 (LGPPAPVQAKAR; listed as Homo sapiens)” yielded a logFC.mEQ.over.Luc of −0.44.

The substance “FBN1_29 (LEAGNVKETR; listed as Homo sapiens)” showed a logFC.mEQ.over.Luc of −0.24.

As for “FBN1_53 (LKGPNVCGSR; listed as Homo sapiens)”, the logFC.mEQ.over.Luc is −0.25.

In turn, “FLNA_1285 (LTQTGGPHVKAR; listed as Homo sapiens)” returned a logFC.mEQ.over.Luc of −1.35.

Regarding “FN1_36 (MVQPQSPVAVSQSKPGCYDNGKHYQINQQWER; listed as Homo sapiens)”, the logFC.mEQ.over.Luc is given as −0.11.

For the substance “FN1_40 (QSPVAVSQSKPGCYDNGKHYQINQQWER; listed as Homo sapiens)”, the logFC.mEQ.over.Luc is given as −0.06.

“FN1_1143 (LTPGVEYVYTIQVLR; listed as Homo sapiens)” registered a logFC.mEQ.over.Luc of −0.49.

As to “FN1_1656 (SSSPVTGYR; listed as Homo sapiens)”, the logFC.mEQ.over.Luc is −0.65.

The substance “GSN_413 (HIANVER; listed as Homo sapiens)” registered a logFC.mEQ.over.Luc of 0.18.

As for “HSPG2_275 (LLPGSVR; listed as Homo sapiens)”, the logFC.mEQ.over.Luc is reported as −0.36.

Regarding “HSPG2_2331 (ANLAYPAGSTQPIR; listed as Homo sapiens)”, the logFC.mEQ.over.Luc is on record as −0.19.

“HSPG2_2333 (LAYPAGSTQPIR; listed as Homo sapiens)” yielded a logFC.mEQ.over.Luc of −0.22.

In the case of “IGFBP3_31 (SAGLGPVVR; listed as Homo sapiens)”, the logFC.mEQ.over.Luc is reported as −0.31.

“IGFBP3_32 (AGLGPVVR; listed as Homo sapiens)” showed a logFC.mEQ.over.Luc of −0.51.

Substance “IGFBP7_101 (AAGGPGVSGVCVCKSR; listed as Homo sapiens)” registered a logFC.mEQ.over.Luc of −0.04.

For “LOX_58 (LSLGSQYQPQR; listed as Homo sapiens)”, the logFC.mEQ.over.Luc is recorded as −0.08.

For “LOX_123 (HWFQAGYSTSR; listed as Homo sapiens)”, the logFC.mEQ.over.Luc stood at 0.00.

“LOX_124 (WFQAGYSTSR; listed as Homo sapiens)”: the logFC.mEQ.over.Luc was −0.11.

Turning to “LOX_126 (QAGYSTSR; listed as Homo sapiens)”, the logFC.mEQ.over.Luc is −0.26.
